According to IntAct's records for PubMed 25416956:

B1: Inactive peptidyl-prolyl cis-trans isomerase FKBP6 (Homo sapiens), O75344 (parent)
chain: MGGSALNQGVLEGDDAPGQSLYERLSQRMLDISGDRGVLKDVIREGAGDLVAPDASVLVKYSGYLEHMDRPFDSNYFRKTPRLMKLGEDITLWGMELGLLSMRRGELARFLFKPNYAYGTLGCPPLIPPNTTVLFEIELLDFLDCAESDKFCALSAEQQDQFPLQKVLKVAATEREFGNYLFRQNRFYDAKVRYKRALLLLRRRSAPPEEQHLVEAAKLPVLLNLSFTYLKLDRPTIALCYGEQALIIDQKNAKALFRCGQACLLLTEYQKARDFLVRAQKEQPFNHDINNELKKLASCYRDYVDKEKEMWHRMFAPCGDGSTAGES
partner: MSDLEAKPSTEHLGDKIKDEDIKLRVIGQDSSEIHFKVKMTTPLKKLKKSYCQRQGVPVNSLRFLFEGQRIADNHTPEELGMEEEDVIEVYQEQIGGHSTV
B2: Keratin, type II cytoskeletal 6A (Homo sapiens), P02538 (parent)
chain: MASTSTTIRSHSSSRRGFSANSARLPGVSRSGFSSVSVSRSRGSGGLGGACGGAGFGSRSLYGLGGSKRISIGGGSCAISGGYGSRAGGSYGFGGAGSGFGFGGGAGIGFGLGGGAGLAGGFGGPGFPVCPPGGIQEVTVNQSLLTPLNLQIDPTIQRVRAEEREQIKTLNNKFASFIDKVRFLEQQNKVLETKWTLLQEQGTKTVRQNLEPLFEQYINNLRRQLDSIVGERGRLDSELRGMQDLVEDFKNKYEDEINKRTAAENEFVTLKKDVDAAYMNKVELQAKADTLTDEINFLRALYDAELSQMQTHISDTSVVLSMDNNRNLDLDSIIAEVKAQYEEIAQRSRAEAESWYQTKYEELQVTAGRHGDDLRNTKQEIAEINRMIQRLRSEIDHVKKQCANLQAAIADAEQRGEMALKDAKNKLEGLEDALQKAKQDLARLLKEYQELMNVKLALDVEIATYRKLLEGEECRLNGEGVGQVNISVVQSTVSSGYGGASGVGSGLGLGGGSSYSYGSGLGVGGGFSSSSGRAIGGGLSSVGGGSSTIKYTTTSSSSRKSYKH
partner: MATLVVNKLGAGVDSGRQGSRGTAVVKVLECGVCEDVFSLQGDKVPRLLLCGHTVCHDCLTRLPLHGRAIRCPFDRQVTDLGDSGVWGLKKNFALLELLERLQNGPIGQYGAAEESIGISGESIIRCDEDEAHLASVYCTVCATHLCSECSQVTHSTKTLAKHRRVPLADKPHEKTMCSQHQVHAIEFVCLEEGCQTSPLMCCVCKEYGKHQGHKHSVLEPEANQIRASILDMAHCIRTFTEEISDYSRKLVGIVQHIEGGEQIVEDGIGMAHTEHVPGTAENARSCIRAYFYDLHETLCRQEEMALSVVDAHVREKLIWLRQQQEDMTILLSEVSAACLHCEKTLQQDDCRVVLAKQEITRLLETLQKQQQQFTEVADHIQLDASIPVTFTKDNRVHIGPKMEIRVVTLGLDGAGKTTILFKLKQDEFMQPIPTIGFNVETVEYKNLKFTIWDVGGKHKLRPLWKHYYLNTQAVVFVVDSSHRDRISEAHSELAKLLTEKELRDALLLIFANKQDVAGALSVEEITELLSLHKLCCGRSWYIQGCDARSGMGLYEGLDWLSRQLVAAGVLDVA
B3: Keratin, type II cytoskeletal 6A (Homo sapiens), P02538 (parent)
chain: B2 chain
partner: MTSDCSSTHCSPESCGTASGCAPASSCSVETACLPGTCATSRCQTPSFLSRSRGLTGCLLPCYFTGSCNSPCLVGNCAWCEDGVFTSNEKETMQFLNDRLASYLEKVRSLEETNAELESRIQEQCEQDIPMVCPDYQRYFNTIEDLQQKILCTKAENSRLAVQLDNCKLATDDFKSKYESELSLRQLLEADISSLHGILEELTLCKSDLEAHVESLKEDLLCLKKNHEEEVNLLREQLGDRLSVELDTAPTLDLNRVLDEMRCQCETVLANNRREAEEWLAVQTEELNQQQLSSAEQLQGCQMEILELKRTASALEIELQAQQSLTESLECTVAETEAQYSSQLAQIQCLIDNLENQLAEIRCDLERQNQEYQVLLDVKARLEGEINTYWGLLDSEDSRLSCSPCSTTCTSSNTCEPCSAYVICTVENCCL
B4: Keratin, type II cytoskeletal 2 epidermal (Homo sapiens), P35908 (parent)
chain: MSCQISCKSRGRGGGGGGFRGFSSGSAVVSGGSRRSTSSFSCLSRHGGGGGGFGGGGFGSRSLVGLGGTKSISISVAGGGGGFGAAGGFGGRGGGFGGGSSFGGGSGFSGGGFGGGGFGGGRFGGFGGPGGVGGLGGPGGFGPGGYPGGIHEVSVNQSLLQPLNVKVDPEIQNVKAQEREQIKTLNNKFASFIDKVRFLEQQNQVLQTKWELLQQMNVGTRPINLEPIFQGYIDSLKRYLDGLTAERTSQNSELNNMQDLVEDYKKKYEDEINKRTAAENDFVTLKKDVDNAYMIKVELQSKVDLLNQEIEFLKVLYDAEISQIHQSVTDTNVILSMDNSRNLDLDSIIAEVKAQYEEIAQRSKEEAEALYHSKYEELQVTVGRHGDSLKEIKIEISELNRVIQRLQGEIAHVKKQCKNVQDAIADAEQRGEHALKDARNKLNDLEEALQQAKEDLARLLRDYQELMNVKLALDVEIATYRKLLEGEECRMSGDLSSNVTVSVTSSTISSNVASKAAFGGSGGRGSSSGGGYSSGSSSYGSGGRQSGSRGGSGGGGSISGGGYGSGGGSGGRYGSGGGSKGGSISGGGYGSGGGKHSSGGGSRGGSSSGGGYGSGGGGSSSVKGSSGEAFGSSVTFSFR
partner: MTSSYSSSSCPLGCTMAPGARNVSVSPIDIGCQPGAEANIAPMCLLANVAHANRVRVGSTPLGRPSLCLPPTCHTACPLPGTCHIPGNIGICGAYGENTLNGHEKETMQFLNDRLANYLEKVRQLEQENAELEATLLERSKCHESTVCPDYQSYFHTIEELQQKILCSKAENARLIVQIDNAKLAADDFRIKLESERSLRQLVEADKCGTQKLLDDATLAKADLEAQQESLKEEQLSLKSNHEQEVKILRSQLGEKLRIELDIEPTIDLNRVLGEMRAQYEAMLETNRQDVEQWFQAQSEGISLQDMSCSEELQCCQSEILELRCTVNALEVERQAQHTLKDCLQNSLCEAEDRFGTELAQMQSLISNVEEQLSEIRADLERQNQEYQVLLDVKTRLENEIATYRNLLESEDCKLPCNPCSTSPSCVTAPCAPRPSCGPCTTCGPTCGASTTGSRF
B5: Forkhead box protein P3 (Homo sapiens), Q9BZS1 (parent)
chain: MPNPRPGKPSAPSLALGPSPGASPSWRAAPKASDLLGARGPGGTFQGRDLRGGAHASSSSLNPMPPSQLQLPTLPLVMVAPSGARLGPLPHLQALLQDRPHFMHQLSTVDAHARTPVLQVHPLESPAMISLTPPTTATGVFSLKARPGLPPGINVASLEWVSREPALLCTFPNPSAPRKDSTLSAVPQSSYPLLANGVCKWPGCEKVFEEPEDFLKHCQADHLLDEKGRAQCLLQREMVQSLEQQLVLEKEKLSAMQAHLAGKMALTKASSVASSDKGSCCIVAAGSQGPVVPAWSGPREAPDSLFAVRRHLWGSHGNSTFPEFLHNMDYFKFHNMRPPFTYATLIRWAILEAPEKQRTLNEIYHWFTRMFAFFRNHPATWKNAIRHNLSLHKCFVRVESEKGAVWTVDELEFRKKRSQRPSRCSNPTPGP

Variants of: B1
Settings: with sumo5_human SUMO1P1, G2XKQ0

Row | effect of a mutation on the interaction | Variant
1 | disrupting interaction | F72L

Variants of: B2
Settings: with tri23_human TRIM23, P36406

Row | effect of a mutation on the interaction | Variant
2 | disrupting interaction | I462S

Variants of: B2
Settings: with tri23_human TRIM23, P36406
Remark: another data set of the same source

Row | effect of a mutation on the interaction | Variant
3 | disrupting interaction | N171K

Variants of: B2
Settings: with tri23_human TRIM23, P36406
Remark: another data set of the same source

Row | effect of a mutation on the interaction | Variant
4 | disrupting interaction | A463P

Variants of: B3
Settings: with KRT40, Q6A162

Row | effect of a mutation on the interaction | Variant
5 | disrupting interaction | A463P

Variants of: B3
Settings: with KRT40, Q6A162
Remark: another data set of the same source

Row | effect of a mutation on the interaction | Variant
6 | disrupting interaction | I462S

Variants of: B4
Settings: with krt38_human KRT38, O76015

Row | effect of a mutation on the interaction | Variant
7 | disrupting interaction | I477N

Variants of: B5
Settings: with pr20c_human PRR20C

Row | effect of a mutation on the interaction | Variant
8 | disrupting interaction | I363V

Variants of: B5
Settings: with rbpms_human RBPMS

Row | effect of a mutation on the interaction | Variant
9 | disrupting interaction | I363V
